This note sets out measurements from article doi:10.1101/2021.06.01.446590 (bioRxiv, 2021).

Broadly, the Kd is the concentration at which binding is half-saturated. A higher Kd goes with weaker binding.

In experiment [1] the target is human parkin, full-length (human, UniProt O60260 1-465). As to the kind of experiment: ITC.
The next experiment deals with His6-Smt3-Parkin (human, UniProt O60260 1-465, RED-tris-NTA dye bound to the His6 tag). As to the kind of experiment: MST.
Sequence of His6-Smt3-Parkin (O60260 whole entry): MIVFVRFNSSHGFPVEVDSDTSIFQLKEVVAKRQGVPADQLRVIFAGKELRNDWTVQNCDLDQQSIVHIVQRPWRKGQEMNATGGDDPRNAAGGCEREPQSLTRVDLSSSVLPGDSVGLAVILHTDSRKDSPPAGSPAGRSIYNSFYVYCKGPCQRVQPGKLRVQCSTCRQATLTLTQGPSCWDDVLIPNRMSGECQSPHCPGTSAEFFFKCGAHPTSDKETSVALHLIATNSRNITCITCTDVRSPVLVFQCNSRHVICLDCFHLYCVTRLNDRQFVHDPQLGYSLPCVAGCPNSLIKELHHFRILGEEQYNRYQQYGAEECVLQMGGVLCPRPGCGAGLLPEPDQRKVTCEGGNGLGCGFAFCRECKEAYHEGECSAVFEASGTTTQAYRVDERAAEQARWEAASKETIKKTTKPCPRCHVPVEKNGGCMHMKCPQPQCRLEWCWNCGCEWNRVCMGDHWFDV

Sequence of human parkin, full-length (O60260 whole entry): as above

B1: human CISD1 (residues 32-108) (domain or fragment, UniProt Q9NZ45 32-108, looked up)
chain: KRFYVKDHRNKAMINLHIQKDNPKIVHAFDMEDLGDKAVYCRCWRSKKFPFCDGAHTKHNEETGDNVGPLIIKKKET
The molecule B1 gave a dissociation constant (Kd) in experiment [1] of more than 100 µM.

B2: Miro1^181-579 (soluble construct of Miro1 containing the EF1-EF2-G2 domains) (domain or fragment, human, UniProt Q8IXI2 181-579, looked up)
chain: MKPACIKALTRIFKISDQDNDGTLNDAELNFFQRICFNTPLAPQALEDVKNVVRKHISDGVADSGLTLKGFLFLHTLFIQRGRHETTWTVLRRFGYDDDLDLTPEYLFPLLKIPPDCTTELNHHAYLFLQSTFDKHDLDRDCALSPDELKDLFKVFPYIPWGPDVNNTVCTNERGWITYQGFLSQWTLTTYLDVQRCLEYLGYLGYSILTEQESQASAVTVTRDKKIDLQKKQTQRNVFRCNVIGVKNCGKSGVLQALLGRNLMRQKKIREDHKSYYAINTVYVYGQEKYLLLHDISESEFLTEAEIICDVVCLVYDVSNPKSFEYCARIFKQHFMDSRIPCLIVAAKSDLHEVKQEYSISPTDFCRKHKMPPPQAFTCNTADAPSKDIFVKLTTMAMY
In the case of B2, the Kd with His6-Smt3-Parkin is more than 100 µM.
